Assay results from patent US20150224182A1 (UNIVERSITY OF VIRGINIA PATENT FOUNDATION, published 2015).
Non-standard residues stand in square brackets, D forms with d. No end group written: not given here. pT = C[C@@H](OP(=O)(O)O)[C@H](N)C(=O)O; pS = N[C@@H](COP(=O)(O)O)C(=O)O

B1: AVIHQsLGL (peptide)
peptide: AVIHQ[pS]LGL
notes: From Protein CNPPD1, UniProt Q9BV87
B2: ALDsGASLLHL (peptide)
peptide: ALD[pS]GASLLHL
B3: ALGsRESLATI (peptide)
peptide: ALG[pS]RESLATI
B4: AMLGSKsPDPYRL (peptide)
peptide: AMLGSK[pS]PDPYRL
notes: From Protein SON, UniProt P18583
B5: RSLsPGGAA (peptide)
peptide: RSL[pS]PGGAA
B6: RPRsPRQNSI (peptide)
peptide: RPR[pS]PRQNSI
B7: RPVtPVSDL (peptide)
peptide: RPV[pT]PVSDL
B8: KPAsPKFIVTL (peptide)
peptide: KPA[pS]PKFIVTL
B9: RPRPHsAPSL (peptide)
peptide: RPRPH[pS]APSL
B10: QPRsPGPDYSL (peptide)
peptide: QPR[pS]PGPDYSL
B11: FRRsPTKSSLDY (peptide)
peptide: FRR[pS]PTKSSLDY
B12: RPAKsMDSL (peptide)
peptide: RPAK[pS]MDSL
B13: RPItPPRNSA (peptide)
peptide: RPI[pT]PPRNSA
B14: RSLsPLLF (peptide)
peptide: RSL[pS]PLLF
B15: TPAQPQRRsL (peptide)
peptide: TPAQPQRR[pS]L
B16: RPWsPAVSA (peptide)
peptide: RPW[pS]PAVSA
B17: RPDsRLGKTEL (peptide)
peptide: RPD[pS]RLGKTEL
B18: RPRANsGGVDL (peptide)
peptide: RPRAN[pS]GGVDL
B19: SPAsPKISL (peptide)
peptide: SPA[pS]PKISL
B20: RPAsAGAML (peptide)
peptide: RPA[pS]AGAML
B21: SPSTSRSGGsSRL (peptide)
peptide: SPSTSRSGG[pS]SRL
B22: LPAsPRARL (peptide)
peptide: LPA[pS]PRARL
B23: RRKsQVAEL (peptide)
peptide: RRK[pS]QVAEL
B24: FSIsPVRL (peptide)
peptide: FSI[pS]PVRL
B25: SPGLARKRsL (peptide)
peptide: SPGLARKR[pS]L
B26: KPPsPEHQSL (peptide)
peptide: KPP[pS]PEHQSL
B27: RPRsPAARL (peptide)
peptide: RPR[pS]PAARL
B28: RPHsPEKAF (peptide)
peptide: RPH[pS]PEKAF
B29: RPSRSsPGL (peptide)
peptide: RPSRS[pS]PGL
B30: SPRsPGKPM (peptide)
peptide: SPR[pS]PGKPM
B31: SPEKAGRRsSL (peptide)
peptide: SPEKAGRR[pS]SL
B32: RPKPSSsPV (peptide)
peptide: RPKPSS[pS]PV
B33: RAPsPSSRM (peptide)
peptide: RAP[pS]PSSRM
B34: KPPHsPLVL (peptide)
peptide: KPPH[pS]PLVL
B35: RPRsPTGP (peptide)
peptide: RPR[pS]PTGP
B36: YQRsFDEVEGVF (peptide)
peptide: YQR[pS]FDEVEGVF
B37: RPPsPGPVL (peptide)
peptide: RPP[pS]PGPVL
B38: KPAsPARRL (peptide)
peptide: KPA[pS]PARRL
B39: SPSsPSVRRQL (peptide)
peptide: SPS[pS]PSVRRQL
B40: RPRsLEVTI (peptide)
peptide: RPR[pS]LEVTI
B41: TPIsPGRASGM (peptide)
peptide: TPI[pS]PGRASGM
B42: RPKLSsPAL (peptide)
peptide: RPKLS[pS]PAL
B43: RSEsKDRKL (peptide)
peptide: RSE[pS]KDRKL
B44: RPYsPPFFSL (peptide)
peptide: RPY[pS]PPFFSL
B45: RPPsSEFLDL (peptide)
peptide: RPP[pS]SEFLDL
B46: RPVsPGKDI (peptide)
peptide: RPV[pS]PGKDI
B47: RTEsDSGLKK (peptide)
peptide: RTE[pS]DSGLKK
B48: RPPPPPDtPP (peptide)
peptide: RPPPPPD[pT]PP
B49: RPAtGGPGVA (peptide)
peptide: RPA[pT]GGPGVA
B50: KPYsPLASL (peptide)
peptide: KPY[pS]PLASL
B51: RPFsPREAL (peptide)
peptide: RPF[pS]PREAL
B52: RPQRAtSNVF (peptide)
peptide: RPQRA[pT]SNVF
B53: YQRsFDEVEGV (peptide)
peptide: YQR[pS]FDEVEGV
B54: RSGsLERKV (peptide)
peptide: RSG[pS]LERKV
B55: KPQTRGKtF (peptide)
peptide: KPQTRGK[pT]F
B56: RPRsPSPIS (peptide)
peptide: RPR[pS]PSPIS
B57: RPRsPTGPsNSF (peptide)
peptide: RPR[pS]PTGP[pS]NSF
B58: EPKRRsARL (peptide)
peptide: EPKRR[pS]ARL
B59: SPKsPGLKA (peptide)
peptide: SPK[pS]PGLKA
B60: VPRsPKHAHSSSL (peptide)
peptide: VPR[pS]PKHAHSSSL
B61: KPRsPDHVL (peptide)
peptide: KPR[pS]PDHVL
B62: RPNsPSPTAL (peptide)
peptide: RPN[pS]PSPTAL
B63: RPQRATsNVF (peptide)
peptide: RPQRAT[pS]NVF
B64: RPsSPALYF (peptide)
peptide: RP[pS]SPALYF
B65: KPPYRSHsL (peptide)
peptide: KPPYRSH[pS]L
B66: SPRsPSTTYL (peptide)
peptide: SPR[pS]PSTTYL
B67: RRSsLDAEIDSL (peptide)
peptide: RRS[pS]LDAEIDSL
B68: KPPtPGASF (peptide)
peptide: KPP[pT]PGASF
B69: FRRsPTKSSL (peptide)
peptide: FRR[pS]PTKSSL
B70: RPRsPGSNSKV (peptide)
peptide: RPR[pS]PGSNSKV
B71: RPRsAVLL (peptide)
peptide: RPR[pS]AVLL

These binders were tested against T1, HLA-A*0201 (human) (assay: listed as presented with class I MHC on cancer cells (leukemia or transformed B cells)).
T1 construct: also called HLA-A2
B1: binds. B2: binds. B3: binds. B4: binds.

These binders were tested against T2, HLA B*0702 (human) (assay: MS of peptides eluted from HLA; L/M column: L).
T2 construct: Class I MHC molecule of the cells from which the associated phosphopeptides were detected; also called HLA-B7
B5: binds. B6: binds. B7: binds. B8: binds. B9: binds. B10: binds. B11: binds. B12: binds. B13: binds. B14: binds. B15: binds. B16: binds. B17: binds. B18: binds. B19: binds. B20: binds. B21: binds. B22: binds. B23: binds. B24: binds. B25: binds. B26: binds. B27: binds. B28: binds. B29: binds. B30: binds. B31: binds. B32: binds. B33: binds. B34: binds. B35: binds. B36: binds. B37: binds. B38: binds. B39: binds. B40: binds. B41: binds. B42: binds. B43: binds. B44: binds. B45: binds. B46: binds. B47: binds. B48: binds. B49: binds. B50: binds. B51: binds. B52: binds. B53: binds. B54: binds. B55: binds. B56: binds. B57: binds. B58: binds. B59: binds. B60: binds. B61: binds. B62: binds. B63: binds. B64: binds. B65: binds. B66: binds. B67: binds. B68: binds. B69: binds. B70: binds. B71: binds.
